Data: the supplement of paper PMC10126150
± gives the standard deviation of the averaged measurements.

Tested on: ATP
Test: switch fluorescence ratio, 500 uM ATP over buffer (Cy3 cluster intensity, sum of 5 cycles each) (fold (ratio)); higher = stronger signal-on switching upon ATP binding; sequences stand for … in TCGTCGGCAGCGTCAGATGTGTATAAGAGACAGTTTTTTTTTTTTTTTTTTTTTTTTT…TC
Details: aptamer strand: ATP DNA aptamer (quencher-CACCTGGGGGAGTATTGCGGAGGAAGG + anchor), 100 nM annealed; ATP concentration: 500 uM
How it was run: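 Per cluster, summed Cy3 intensity from the target cycles was divided by that from the buffer cycles to give the fluorescence ratio, then averaged per switch-domain sequence. Clusters outside 100-1000 RFU were excluded. The Cy3-labelled switching-strand clusters, on a modified Illumina MiSeq flow-cell, were annealed to 100 nM quencher-labelled ATP aptamer and imaged in selection buffer, then after 15 min with 500 uM ATP at 22 °C, for five cycles with NaOH stripping and re-annealing between them.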
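Further: ATP exposure 15 min at 22 °C before imaging.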

Sequence	switch fluorescence ratio
GGTTACAATT	0.982 ± 0.032
GGTTACACTG	1.03 ± 0.025
GGTTACTAAG	1.01 ± 0.017
GGTTAGAAAT	0.98 ± 0.016
GGTTAGAGTA	1.01 ± 0.025
GGTTAGATGG	0.978 ± 0.043
GGTTAGGAAG	1.005 ± 0.0037
GGTTAGGCGG	0.954 ± 0.015
GGTTAGGGGT	1.08 ± 0.24
GGTTATAATC	0.969 ± 0.07
GGTTATAATT	1.004 ± 0.0011
GGTTATACGA	1.034 ± 0.0054
GGTTATATGT	1.02 ± 0.021
GGTTATGAAT	1 ± 0.015
GGTTATGGTG	1.02 ± 0.02
GGTTATTATG	0.978 ± 0.039
GGTTATTGAG	0.9799 ± 0.0044
GGTTCAAGTT	0.9816 ± 0.0095
GGTTCACGGC	1.03 ± 0.015
GGTTCACGGT	0.994 ± 0.026
GGTTCAGAGA	0.973 ± 0.033
GGTTCATTCT	0.9917 ± 0.0062
GGTTCCACGC	1.09 ± 0.025
GGTTCCCACT	0.9919 ± 0.0045
GGTTCGCGGT	1.02 ± 0.03

Sequence	switch fluorescence ratio
GGTTCTACAT	0.998 ± 0.03
GGTTCTGTGG	1.03 ± 0.0094
GGTTCTGTGT	0.99 ± 0.012
GGTTGAAGTT	0.986 ± 0.0077
GGTTGAATGT	0.9843 ± 0.0074
GGTTGAATTA	0.979 ± 0.051
GGTTGACATA	1.01 ± 0.025
GGTTGACCTG	1 ± 0.032
GGTTGAGTGT	0.9836 ± 0.0046
GGTTGATGAT	0.975 ± 0.033
GGTTGATGTT	0.969 ± 0.059
GGTTGATTAT	0.9793 ± 0.0065
GGTTGCACAG	1.005 ± 0.0043
GGTTGCAGTC	0.946 ± 0.025
GGTTGCGTTT	0.9997 ± 0.001
GGTTGCTCGT	1.008 ± 0.0092
GGTTGGAAGG	0.9761 ± 0.0047
GGTTGGATCG	0.9987 ± 0.0047
GGTTGGCAGG	1 ± 0.038
GGTTGGCGGG	1.07 ± 0.021
GGTTGGCGTT	0.961 ± 0.03
GGTTGGCTTT	1.01 ± 0.069
GGTTGGGACT	0.994 ± 0.028
GGTTGGGGAT	0.979 ± 0.016
GGTTGGGGTG	1.01 ± 0.037

Sequence	switch fluorescence ratio
GGTTGGTTGG	0.9769 ± 0.0012
GGTTGTCTCG	0.951 ± 0.021
GGTTGTGACG	1 ± 0.08
GGTTGTGTGT	1 ± 0.005
GGTTGTGTTT	0.991 ± 0.003
GGTTGTTGTT	0.978 ± 0.029
GGTTGTTTTT	1.01 ± 0.032
GGTTTAAGAA	1.02 ± 0.023
GGTTTACGTC	0.9998 ± 0.0082
GGTTTACTTC	0.9967 ± 0.0016
GGTTTAGGTT	1.01 ± 0.029
GGTTTAGTGA	0.998 ± 0.034
GGTTTATATT	1.01 ± 0.05
GGTTTATGAA	0.999 ± 0.018
GGTTTATTAA	0.983 ± 0.011
GGTTTCAGAT	0.975 ± 0.016
GGTTTCATAG	0.976 ± 0.013
GGTTTCGCGC	1.01 ± 0.013
GGTTTCGGAA	1 ± 0.034
GGTTTCGGGC	1.03 ± 0.044
GGTTTCGGGT	0.984 ± 0.0011
GGTTTCTCGT	0.967 ± 0.04
GGTTTCTGCT	1.02 ± 0.03
GGTTTGACTA	0.9857 ± 0.0066
GGTTTGGTAG	0.9873 ± 0.0029

Sequence	switch fluorescence ratio
GGTTTGTAAC	0.978 ± 0.029
GGTTTGTTAT	1 ± 0.014
GGTTTTCCGG	1.01 ± 0.046
GGTTTTCGGC	0.9771 ± 0.0087
GGTTTTCTCA	1.002 ± 0.008
GGTTTTGCTT	0.96 ± 0.034
GGTTTTGTAT	0.993 ± 0.024
GGTTTTTAAT	0.985 ± 0.031
GGTTTTTACG	0.985 ± 0.061
GGTTTTTGCG	1.0217 ± 0.0008
GGTTTTTTAG	0.996 ± 0.021
GGTTTTTTGC	1.01 ± 0.04
GTAAAAACTC	1.03 ± 0.024
GTAAACGGTA	1.08 ± 0.064
GTAAACGGTG	0.979 ± 0.032
GTAAATAGCT	1.02 ± 0.073
GTAAATAGGC	0.993 ± 0.023
GTAAATAGTC	1.03 ± 0.065
GTAAATGGGG	0.975 ± 0.011
GTAACAGGGT	0.999 ± 0.023
GTAACCCCGG	1.07 ± 0.025
GTAACGGCCG	1.16 ± 0.18
GTAACGGGGA	0.995 ± 0.072
GTAACGGGGC	0.982 ± 0.049
GTAACTAGAG	0.997 ± 0.033

Sequence	switch fluorescence ratio
GTAAGATTAT	0.985 ± 0.067
GTAAGGAGGT	0.976 ± 0.023
GTAAGTAAAA	1.03 ± 0.089
GTAAGTATGT	1.01 ± 0.011
GTAAGTGAAG	1.05 ± 0.014
GTAATAAGAG	1.004 ± 0.0063
GTAATAAGGT	1.02 ± 0.023
GTAATACCAA	1.03 ± 0.058
GTAATATTAA	1.0073 ± 0.00065
GTAATGAGCG	0.998 ± 0.044
GTAATGCTTA	1.011 ± 0.005
GTAATGGGGG	1.09 ± 0.071
GTAATTCGGG	0.9809 ± 0.0073
GTAATTGCGG	0.9765 ± 0.0056
GTAATTTGGG	0.982 ± 0.019
GTAATTTTTC	1.01 ± 0.053
GTACGGGAAG	1.19 ± 0.1
GTACTCGGGG	0.9991 ± 0.0074
GTAGAAAGTT	0.984 ± 0.0028
GTAGAGAACT	1 ± 0.021
GTAGCTCCTG	0.995 ± 0.056
GTAGGAATGT	1.03 ± 0.036
GTAGGACCTA	1.01 ± 0.018
GTAGGCAAAT	1.029 ± 0.003
GTAGGCAAGA	1.03 ± 0.071

Sequence	switch fluorescence ratio
GTAGGGAGGG	0.987 ± 0.013
GTAGGGCATG	0.96 ± 0.026
GTAGGGGCCC	1.02 ± 0.032
GTAGGGGGCG	1.01 ± 0.017
GTAGGGGGGA	0.987 ± 0.04
GTAGGGTGCT	1.042 ± 0.0064
GTAGTACAAG	0.986 ± 0.026
GTAGTAGGGA	1.01 ± 0.025
GTAGTAGGGT	1.01 ± 0.035
GTAGTCACGA	1.01 ± 0.048
GTAGTGAGGA	1.02 ± 0.029
GTAGTGAGGG	0.982 ± 0.037
GTAGTGCCAG	1.02 ± 0.042
GTAGTTTTGA	0.981 ± 0.018
GTATAAGAGG	0.991 ± 0.019
GTATAAGGAT	1.03 ± 0.019
GTATACGCAG	1.02 ± 0.026
GTATACGGCA	1.01 ± 0.022
GTATAGGGAA	1.004 ± 0.0071
GTATCCCCCG	1.03 ± 0.041
GTATCCCGTG	0.977 ± 0.018
GTATCGAGGA	0.963 ± 0.047
GTATCTGATG	1.004 ± 0.0027
GTATGACGTA	0.968 ± 0.037
GTATGAGTTG	1.02 ± 0.027

Sequence	switch fluorescence ratio
GTATGCGGAG	0.996 ± 0.02
GTATGCGGGG	0.996 ± 0.02
GTATGCTAGC	1.004 ± 0.0086
GTATGGATGT	1.007 ± 0.0043
GTATGGCAGG	1.01 ± 0.018
GTATGGGCGT	1.03 ± 0.018
GTATGTAGTA	0.985 ± 0.0098
GTATGTCGAG	0.988 ± 0.014
GTATGTCGTT	0.968 ± 0.034
GTATGTGTGC	0.96 ± 0.03
GTATTAAGGG	1.02 ± 0.035
GTATTAGCAG	1.03 ± 0.026
GTATTCAAGA	1 ± 0.043
GTATTCGCAA	4.73 ± 0.9
GTATTCGGGA	0.963 ± 0.029
GTATTGAGAT	0.973 ± 0.063
GTATTGATTT	0.9769 ± 0.0055
GTATTGGGCT	0.98036 ± 0.00097
GTATTTAAAT	0.9855 ± 0.0018
GTATTTACTC	1.04 ± 0.034
GTATTTCGGT	0.972 ± 0.031
GTATTTTCGC	1.02 ± 0.017
GTATTTTGCT	0.979 ± 0.031
GTCAAAAAGT	0.985 ± 0.028
GTCAAAAATT	0.987 ± 0.01

Sequence	switch fluorescence ratio
GTCAAAGCCA	1.02 ± 0.019
GTCAACTGAG	1.05 ± 0.04
GTCAATTGCA	0.999 ± 0.026
GTCACGTATT	1.16 ± 0.0099
GTCACTAGTG	1.028 ± 0.0026
GTCAGAGTCT	1.05 ± 0.021
GTCAGAGTGG	0.991 ± 0.024
GTCAGCCTTT	0.983 ± 0.025
GTCAGCTAAC	1.48 ± 0.053
GTCAGCTTGC	1 ± 0.025
GTCAGGAATT	0.9981 ± 0.0062
GTCAGTGCTA	1.0169 ± 0.001
GTCAGTGGCT	0.998 ± 0.018
GTCAGTGGGC	0.998 ± 0.0052
GTCATAACAT	1.018 ± 0.0065
GTCATAGGTG	1.28 ± 0.087
GTCATTGGAG	1.008 ± 0.0079
GTCCTTGGTC	0.982 ± 0.019
GTCGAGGGGG	0.997 ± 0.05
GTCGATTAGT	0.944 ± 0.033
GTCGATTGGG	1.001 ± 0.0012
GTCGGACTAG	1 ± 0.051
GTCGGAGTCA	1 ± 0.034
GTCGGCGTAG	1.03 ± 0.036
GTCGGCGTTG	0.9916 ± 0.0027
